# Experimental data reported in IntAct's records for PubMed 29892012.
# B1: Keratin, type I cuticular Ha8 (Homo sapiens), O76015 (parent)
# chain: MTSSYSSSSCPLGCTMAPGARNVSVSPIDIGCQPGAEANIAPMCLLANVAHANRVRVGSTPLGRPSLCLPPTCHTACPLPGTCHIPGNIGICGAYGENTLNGHEKETMQFLNDRLANYLEKVRQLEQENAELEATLLERSKCHESTVCPDYQSYFHTIEELQQKILCSKAENARLIVQIDNAKLAADDFRIKLESERSLRQLVEADKCGTQKLLDDATLAKADLEAQQESLKEEQLSLKSNHEQEVKILRSQLGEKLRIELDIEPTIDLNRVLGEMRAQYEAMLETNRQDVEQWFQAQSEGISLQDMSCSEELQCCQSEILELRCTVNALEVERQAQHTLKDCLQNSLCEAEDRFGTELAQMQSLISNVEEQLSEIRADLERQNQEYQVLLDVKTRLENEIATYRNLLESEDCKLPCNPCSTSPSCVTAPCAPRPSCGPCTTCGPTCGASTTGSRF
# partner: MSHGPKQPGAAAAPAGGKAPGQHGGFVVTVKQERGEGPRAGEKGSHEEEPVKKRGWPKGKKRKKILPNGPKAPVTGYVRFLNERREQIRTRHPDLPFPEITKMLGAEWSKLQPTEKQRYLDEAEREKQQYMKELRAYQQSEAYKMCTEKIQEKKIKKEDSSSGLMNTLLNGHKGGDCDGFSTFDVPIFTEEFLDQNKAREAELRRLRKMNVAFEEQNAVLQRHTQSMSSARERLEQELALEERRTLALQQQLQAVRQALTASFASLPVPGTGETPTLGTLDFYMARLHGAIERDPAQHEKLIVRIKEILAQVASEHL
# B2: Protein VAC14 homolog (Homo sapiens), Q08AM6 (parent)
# chain: MNPEKDFAPLTPNIVRALNDKLYEKRKVAALEIEKLVREFVAQNNTVQIKHVIQTLSQEFALSQHPHSRKGGLIGLAACSIALGKDSGLYLKELIEPVLTCFNDADSRLRYYACEALYNIVKVARGAVLPHFNVLFDGLSKLAADPDPNVKSGSELLDRLLKDIVTESNKFDLVSFIPLLRERIYSNNQYARQFIISWILVLESVPDINLLDYLPEILDGLFQILGDNGKEIRKMCEVVLGEFLKEIKKNPSSVKFAEMANILVIHCQTTDDLIQLTAMCWMREFIQLAGRVMLPYSSGILTAVLPCLAYDDRKKSIKEVANVCNQSLMKLVTPEDDELDELRPGQRQAEPTPDDALPKQEGTASGGPDGSCDSSFSSGISVFTAASTERAPVTLHLDGIVQVLNCHLSDTAIGMMTRIAVLKWLYHLYIKTPRKMFRHTDSLFPILLQTLSDESDEVILKDLEVLAEIASSPAGQTDDPGPLDGPDLQASHSELQVPTPGRAGLLNTSGTKGLECSPSTPTMNSYFYKFMINLLKRFSSERKLLEVRGPFIIRQLCLLLNAENIFHSMADILLREEDLKFASTMVHALNTILLTSTELFQLRNQLKDLKTLESQNLFCCLYRSWCHNPVTTVSLCFLTQNYRHAYDLIQKFGDLEVTVDFLAEVDKLVQLIECPIFTYLRLQLLDVKNNPYLIKALYGLLMLLPQSSAFQLLSHRLQCVPNPELLQTEDSLKAAPKSQKADSPSIDYAELLQHFEKVQNKHLEVRHQRSGRGDHLDRRVVL
# partner: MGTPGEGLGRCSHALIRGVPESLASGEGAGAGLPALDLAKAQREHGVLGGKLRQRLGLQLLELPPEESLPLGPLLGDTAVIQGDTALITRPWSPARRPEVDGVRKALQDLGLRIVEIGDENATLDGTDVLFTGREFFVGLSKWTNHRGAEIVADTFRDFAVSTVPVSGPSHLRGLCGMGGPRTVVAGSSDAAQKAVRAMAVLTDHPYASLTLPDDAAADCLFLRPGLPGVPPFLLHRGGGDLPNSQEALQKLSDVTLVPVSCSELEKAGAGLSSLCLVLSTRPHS
# B3: Keratin, type I cuticular Ha8 (Homo sapiens), O76015 (parent)
# chain: B1 chain
# partner: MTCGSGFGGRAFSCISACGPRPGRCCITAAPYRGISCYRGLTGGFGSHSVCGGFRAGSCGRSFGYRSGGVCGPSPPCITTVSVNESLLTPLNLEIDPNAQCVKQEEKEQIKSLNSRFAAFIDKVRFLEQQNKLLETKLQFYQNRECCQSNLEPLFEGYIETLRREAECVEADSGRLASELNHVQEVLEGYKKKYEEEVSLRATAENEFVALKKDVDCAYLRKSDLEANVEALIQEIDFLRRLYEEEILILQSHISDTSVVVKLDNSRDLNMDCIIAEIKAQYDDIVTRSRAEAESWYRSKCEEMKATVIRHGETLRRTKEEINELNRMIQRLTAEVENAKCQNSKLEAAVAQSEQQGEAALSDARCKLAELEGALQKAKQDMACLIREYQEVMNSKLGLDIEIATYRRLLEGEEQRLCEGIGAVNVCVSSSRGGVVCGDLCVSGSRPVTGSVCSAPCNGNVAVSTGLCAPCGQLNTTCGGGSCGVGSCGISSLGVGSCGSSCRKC
# B4: Genetic suppressor element 1 (Homo sapiens), Q14687 (parent)
# chain: MKGMSHEPKSPSLGMLSTATRTTATVNPLTPSPLNGALVPSGSPATSSALSAQAAPSSSFAAALRKLAKQAEEPRGSSLSSESSPVSSPATNHSSPASTPKRVPMGPIIVPPGGHSVPSTPPVVTIAPTKTVNGVWRSESRQDAGSRSSSGGRERLIVEPPLPQEKAGGPAIPSHLLSTPYPFGLSPSSVVQDSRFPPLNLQRPVHHVVPPSTVTEDYLRSFRPYHTTDDLRMSSLPPLGLDPATAAAYYHPSYLAPHPFPHPAFRMDDSYCLSALRSPFYPIPTPGSLPPLHPSAMHLHLSGVRYPPELSHSSLAALHSERMSGLSAERLQMDEELRREREREREREREREADREREKEREREREKEREQEKEREREKERERELERQREQRAREKELLAAKALEPSFLPVAELHGLRGHATEERGKPSEQLTPTRAEKLKDAGLQAPKPVQHPLHPVPTPHHTVPSLISNHGIFSLPSSSAATALLIQRTNEEEKWLARQRRLRQEKEDRQSQVSEFRQQVLEQHLDMGRPPVPAEAEHRPESTTRPGPNRHEPGGRDPPQHFGGPPPLISPKPQLHAAPTALWNPVSLMDNTLETRRAESHSLHSHPAAFEPSRQAAVPLVKVERVFCPEKAEEGPRKREPAPLDKYQPPPPPPREGGSLEHQPFLPGPGPFLAELEKSTQTILGQQRASLPQAATFGELSGPLKPGSPYRPPVPRAPDPAYIYDEFLQQRRRLVSKLDLEERRRREAQEKGYYYDLDDSYDESDEEEVRAHLRCVAEQPPLKLDTSSEKLEFLQLFGLTTQQQKEELVAQKRRKRRRMLRERSPSPPTIQSKRQTPSPRLALSTRYSPDEMNNSPNFEEKKKFLTIFNLTHISAEKRKDKERLVEMLRAMKQKALSAAVADSLTNSPRDSPAVSLSEPATQQASLDVEKPVGVAASLSDIPKAAEPGKLEQVRPQELSRVQELAPASGEKARLSEAPGGKKSLSMLHYIRGAAPKDIPVPLSHSTNGKSKPWEPFVAEEFAHQFHESVLQSTQKALQKHKGSVAVLSAEQNHKVDTSVHYNIPELQSSSRAPPPQHNGQQEPPTARKGPPTQELDRDSEEEEEEDDEDGEDEEEVPKRKWQGIEAVFEAYQEHIEEQNLERQVLQTQCRRLEARHYSLSLTAEQLSHSVAELRSQKQKMVSERERLQAELDHLRKCLALPAMHWPRGYLKGYPR
# partner: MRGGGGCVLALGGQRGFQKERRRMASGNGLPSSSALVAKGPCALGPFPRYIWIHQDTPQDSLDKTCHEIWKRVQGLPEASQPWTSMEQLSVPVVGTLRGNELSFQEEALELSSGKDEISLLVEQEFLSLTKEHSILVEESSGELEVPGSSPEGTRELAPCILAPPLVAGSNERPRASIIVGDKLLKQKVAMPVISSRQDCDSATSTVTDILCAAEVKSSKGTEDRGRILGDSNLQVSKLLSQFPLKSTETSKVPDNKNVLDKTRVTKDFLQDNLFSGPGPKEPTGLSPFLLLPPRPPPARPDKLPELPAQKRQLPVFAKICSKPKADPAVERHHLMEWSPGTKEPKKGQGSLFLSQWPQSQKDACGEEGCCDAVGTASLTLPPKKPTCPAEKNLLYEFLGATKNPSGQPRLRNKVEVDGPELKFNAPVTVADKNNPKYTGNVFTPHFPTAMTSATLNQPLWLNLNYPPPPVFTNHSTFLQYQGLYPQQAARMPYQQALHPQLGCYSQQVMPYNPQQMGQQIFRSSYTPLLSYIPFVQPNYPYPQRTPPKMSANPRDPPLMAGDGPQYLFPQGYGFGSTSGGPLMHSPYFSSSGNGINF
# Variants of: B1
# Details: with hm20b_human HMG20B
row,Variant,effect of a mutation on the interaction
1,D306A,with no effect

# Variants of: B2
# Details: with ddah2_human DDAH2, O95865
row,Variant,effect of a mutation on the interaction
1,A127S,with no effect

# Variants of: B3
# Details: with krt81_human KRT81, Q14533
row,Variant,effect of a mutation on the interaction
1,N270K,with no effect

# Variants of: B3
# Details: with krt81_human KRT81, Q14533
# Remark: another data set of the same source
row,Variant,effect of a mutation on the interaction
1,D306A,with no effect

# Variants of: B4
# Details: with ca094_human C1orf94, Q6P1W5
row,Variant,effect of a mutation on the interaction
1,E368K,with no effect

# Variants of: B4
# Details: with ca094_human C1orf94, Q6P1W5
# Remark: another data set of the same source
row,Variant,effect of a mutation on the interaction
1,R503Q,with no effect
